Data published in US11098109B2, “Single-chain variable fragment anti-CD133 antibodies and uses thereof” (REGENTS OF THE UNIVERSITY OF MINNESOTA, priority 2010, dated 2021).

Assays:
CD133 [1] = molecular target: T1, CD133 (Homo sapiens, UniProt O43490); experiment: Immunohistochemistry of human glioma and kidney tissue sections; assay type: binding
T1 construct: endogenous in cells
T1 sequence (O43490 20-865): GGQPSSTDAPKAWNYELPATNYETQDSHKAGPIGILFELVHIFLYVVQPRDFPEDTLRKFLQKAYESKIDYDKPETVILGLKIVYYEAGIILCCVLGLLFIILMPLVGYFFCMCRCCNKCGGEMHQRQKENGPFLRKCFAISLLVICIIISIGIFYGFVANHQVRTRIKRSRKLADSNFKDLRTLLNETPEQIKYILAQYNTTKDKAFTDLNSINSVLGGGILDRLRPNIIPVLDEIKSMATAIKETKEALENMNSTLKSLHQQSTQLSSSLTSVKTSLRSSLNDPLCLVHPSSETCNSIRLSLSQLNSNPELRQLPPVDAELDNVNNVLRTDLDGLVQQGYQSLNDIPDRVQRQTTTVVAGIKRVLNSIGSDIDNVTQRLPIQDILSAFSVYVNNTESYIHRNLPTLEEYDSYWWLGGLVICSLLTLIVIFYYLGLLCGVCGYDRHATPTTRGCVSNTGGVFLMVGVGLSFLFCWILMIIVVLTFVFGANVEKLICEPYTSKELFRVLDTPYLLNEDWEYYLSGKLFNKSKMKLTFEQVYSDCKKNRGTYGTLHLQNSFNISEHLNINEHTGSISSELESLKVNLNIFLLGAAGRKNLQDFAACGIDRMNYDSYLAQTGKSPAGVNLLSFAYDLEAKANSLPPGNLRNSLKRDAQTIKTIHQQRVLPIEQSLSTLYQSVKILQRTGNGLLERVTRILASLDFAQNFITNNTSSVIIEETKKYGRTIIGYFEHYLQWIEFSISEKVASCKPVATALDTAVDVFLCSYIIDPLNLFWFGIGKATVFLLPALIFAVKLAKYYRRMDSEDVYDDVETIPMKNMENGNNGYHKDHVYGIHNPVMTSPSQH
Method: 5 μm paraffin sections of human kidney or glioblastoma tissue were mounted onto charged slides. The sections were deparaffinized and rehydrated using standard methods, rinsed in running tap-water and placed in a PBS bath for five minutes. The slides were then incubated in a pre-heated steamer bath with staining dish containing EDTA buffer (pH 8.0) for 30 minutes and then cooled for 20 minutes. The slides were washed with PBS (pH 7.4) for minimum of five minutes and then subjected to following incubation steps: blocking with serum-free background Sniper (Biocare Medical. Concord, Calif.), primary antibody at a 1:200 dilution of hybridoma supernatant at 4° C. overnight, Leica Bond post primary. Leica Bond polymer, and DAB chromagen developer. The sections were rinsed well, counterstained with hematoxylin, dehydrated, sealed with a cover slip and imaged.

CD133 [2] = molecular target: T1, CD133; experiment: Flow cytometry specificity test on U87, CD133-transfected U87, Caco-2 and GBM6 cells; assay type: binding
Method: FIG. 3: Specificity of antibody produced by Hybridoma Clone 7. (A) Flow cytometry. Cells were incubated with primary antibody from either Hybridoma Clone 7 or 293C3 (Militenyi), followed by incubation with a labeled secondary antibody, and then analyzed by flow cytometry. Antibody from the newly developed anti-CD133 Hybridoma Clone 7 (open black histogram) stains very specifically the CD133-overexpressing cells, Caco-2 (iii), GBM6 (iv) and U87 cells transfected with CD133 (ii) but not CD133 negative U87 cells (i). Immunostaining using the monoclonal antibody produced by Hybridoma Clone 7 is compared to clone 293C3 (open grey histogram). Isotype control is represented by solid grey histogram. (B) Tunicamycin mediated glycosylation inhibition. Caco-2 cells were treated with increasing doses of tunicamycin (2.5, 5, 10, 20 μg/ml) for 3 days. DMSO treated cells or untreated cells served as controls. Cells were lysed and then analyzed by Western blotting using the monoclonal antibody produced by Hybridoma Clone 7 or GAPDH antibodies.
CD133-IRES GFP or CMV GFP constructs were transfected into U87 cells using FuGENE HD transfection reagent according to the manufacturer's instructions. Briefly, cells were plated in a 10 cm dish. Twelve hours later, 10 μg of the pDNA was diluted in serum-free growth DMEM and mixed with 40 μl of the transfection reagent. Following incubation for 15 minutes, the transfection mix was added to the cells. Forty-eight hours later, cells were harvested using non-enzymatic cell dissociation buffer (Sigma-Aldrich Corp., St. Louis, Mo.) for flow cytometry.
Primary human glioblastoma GBM6 cells, U87, or Caco-2 cells were washed three times and suspended in 100 μl of PBS. […] Cells were further incubated with 10 μl of anti-mouse hylite 647 (1:40 dilution; American Qualex, San Clemente, Calif.) for 30 minutes at 4° C., washed three times, and analyzed by flow cytometry.

B1: Hybridoma Clone 7: monoclonal antibody produced by Hybridoma Clone 7 that specifically binds to human CD133 (antibody, V domains shown)
VL: DIVLSQSPAIMSASPGEKVTISCSASSSVSYMYWYQQKPGSSPKPWIYRTSNLASGVPARFSGSGSGTSYSLTISSMEAEDAATYYCQQYHSYPPTFGAGTKLELK
VH: LEVKLVESGPELKKPGETVKISCKASGYTFTDYSMHWVNQAPGKGLKWMGWINTETGEPSYADDFKGRFAFSLETSASTAYLQINNLKNEDTATYFCATDYGDYFDYWGQGTTLTVSS
B1 was tested, and the immunohistochemical staining (CD133 [1]) was “membrane-specific staining”, the “flow cytometry staining of non-transfected U87 cells” value (CD133 [2]; CD133^low/- U87 cells) was “did not appreciably stain” and the “flow cytometry staining of cells that endogenously express CD133” value (CD133 [2]; Caco-2 and GBM6 cells) was “able to immunostain”. For the same molecule, the “flow cytometry staining of CD133-transfected U87 cells” value (CD133 [2]; U87 transfected with human CD133 cDNA) was “labeled CD133-transfected cells”.
